The results in this text go back to US20210040209A1 (Janssen / Centocor, published 2021).

The target of experiment [1] is human PSMA on cells (LNCaP, C4-2B, LNCaP AR, 22RV1 prostate tumor cell lines; human prostate tissue) (human, UniProt Q04609 1-750). Kind of experiment: cell-based or functional assay.
Experiment [2] has as its target T1, human CD3 epsilon on cells (primary human T cells; mononuclear cells of human tissue) (human, UniProt P07766 23-207).
T1 construct: Part of the TCR/CD3 complex on T cells; also called CD3ε; cell-surface CD3ε
Kind of experiment: tissue cross-reactivity staining of cryosections of normal human tissues. On the procedure:
A GLP cross-reactivity study was conducted in cryosections of normal human tissues with the study drug and its anti-PSMA parental (bivalent) antibody (positive control). No unanticipated tissue cross-reactivity of the study drug was observed. Membrane staining of epithelial cells and staining of extracellular material in the prostate with both the study drug and the anti-PSMA parental antibody was anticipated due to PSMA expression in these tissues. Staining of mononuclear cells with the study drug only was expected based on the expression of CD3ε on T cells.

human PSMA on cells (LNCaP, C4-2B, LNCaP AR, 22RV1 prostate tumor cell lines; human prostate tissue), sequence (Q04609 whole entry): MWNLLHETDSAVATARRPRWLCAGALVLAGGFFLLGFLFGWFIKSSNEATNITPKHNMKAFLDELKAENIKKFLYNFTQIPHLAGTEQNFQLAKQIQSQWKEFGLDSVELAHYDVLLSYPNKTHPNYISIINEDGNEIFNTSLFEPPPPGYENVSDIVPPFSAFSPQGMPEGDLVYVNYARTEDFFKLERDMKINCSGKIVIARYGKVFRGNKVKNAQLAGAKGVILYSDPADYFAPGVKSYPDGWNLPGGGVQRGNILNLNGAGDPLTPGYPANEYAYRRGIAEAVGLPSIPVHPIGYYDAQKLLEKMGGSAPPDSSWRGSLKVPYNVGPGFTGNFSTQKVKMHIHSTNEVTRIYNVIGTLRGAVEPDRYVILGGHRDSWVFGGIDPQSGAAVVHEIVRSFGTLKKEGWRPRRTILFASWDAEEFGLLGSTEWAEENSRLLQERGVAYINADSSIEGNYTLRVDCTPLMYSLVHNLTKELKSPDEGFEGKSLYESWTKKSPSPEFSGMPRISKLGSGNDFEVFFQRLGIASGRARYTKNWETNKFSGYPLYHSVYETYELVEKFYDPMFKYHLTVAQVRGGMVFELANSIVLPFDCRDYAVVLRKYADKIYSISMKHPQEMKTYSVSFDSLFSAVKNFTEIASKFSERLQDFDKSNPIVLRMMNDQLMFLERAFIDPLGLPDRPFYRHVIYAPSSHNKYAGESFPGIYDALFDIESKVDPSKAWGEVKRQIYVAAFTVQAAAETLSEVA
T1 sequence (P07766 23-207 limits assumed): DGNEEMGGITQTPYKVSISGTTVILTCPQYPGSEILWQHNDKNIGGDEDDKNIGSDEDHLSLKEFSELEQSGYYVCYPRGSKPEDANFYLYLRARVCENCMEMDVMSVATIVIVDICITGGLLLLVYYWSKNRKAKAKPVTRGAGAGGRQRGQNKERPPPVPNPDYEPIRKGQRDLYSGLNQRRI

B1: PS3B27 PSMAxCD3 bispecific antibody (PSMB127 x CD3B219) (bispecific antibody, human IgG4 S228P, kappa, lambda, F234A L235A)
heavy 1: not shown
light 1: not shown
heavy 2: EVQLVESGGGLVQPGGSLRLSCAASGFTFNTYAMNWVRQAPGKGLEWVARIRSKYNNYATYYAASVKGRFTISRDDSKNSLYLQMNSLKTEDTAVYYCARHGNFGNSYVSWFAYWGQGTLVTVSSASTKGPSVFPLAPCSRSTSESTAALGCLVKDYFPEPVTVSWNSGALTSGVHTFPAVLQSSGLYSLSSVVTVPSSSLGTKTYTCNVDHKPSNTKVDKRVESKYGPPCPPCPAPEAAGGPSVFLFPPKPKDTLMISRTPEVTCVVVDVSQEDPEVQFNWYVDGVEVHNAKTKPREEQFNSTYRVVSVLTVLHQDWLNGKEYKCKVSNKGLPSSIEKTISKAKGQPREPQVYTLPPSQEEMTKNQVSLTCLVKGFYPSDIAVEWESNGQPENNYKTTPPVLDSDGSFLLYSKLTVDKSRWQEGNVFSCSVMHEALHNHYTQKSLSLSLGK
light 2: QTVVTQEPSLTVSPGGTVTLTCRSSTGAVTTSNYANWVQQKPGQAPRGLIGGTNKRAPGTPARFSGSLLGGKAALTLSGVQPEDEAEYYCALWYSNLWVFGGGTKLTVLGQPKAAPSVTLFPPSSEELQANKATLVCLISDFYPGAVTVAWKADSSPVKAGVETTTPSKQSNNKYAASSYLSLTPEQWKSHRSYSCQVTHEGSTVEKTVAPTECS
notes: also called the study drug
On to B1, for which, in experiment [1], the “CD25 expression on T cells co-cultured with C4-2B cells, median EC50” value is 0.06 nM and the “T cell dependent cytotoxicity of C4-2B cells, median EC50” value was determined as 0.08 nM. For the same molecule, in experiment [2], the binding result was “binds”.
